Laboratory results taken from patent US20060286112A1 (published 2006).

Key:
[1] = molecular target: T1, human VLA-1 (alpha 1/beta 1, CD49a/CD29) on IL-2 stimulated human PBMC / T cells (human, UniProt P56199 29-1179; P05556 21-798); experiment: cell-based or functional assay
[2] = molecular target: T1, human VLA-1 (alpha 1/beta 1, …); experiment: cell-based or functional assay; remark: listed apart in the source
[3] = molecular target: T2, mouse VLA-1 on mouse splenocytes (mouse, UniProt Q3V3R4 29-1179; P09055 21-798); experiment: FACS on mouse splenocytes
T2 construct: whole, on cells; native protein on primary cells

[4] = molecular target: T1, human VLA-1 (alpha 1/beta 1, …); experiment: cell-based or functional assay; remark: listed apart in the source
[5] = molecular target: T3, human CD49a I domain K142Q (human, UniProt P56199 151-364, K142Q); experiment: ELISA on secreted mutant I domain
T3 construct: domain: I domain; text prints KI42Q once; not shown: myc and His tags

[6] = molecular target: T4, human CD49a I domain K88N (human, UniProt P56199 151-364, K88N); experiment: ELISA on secreted mutant I domain
T4 construct: domain: I domain; not shown: myc and His tags

[7] = molecular target: T5, human CD49a I domain E48K (human, UniProt P56199 151-364, E48K); experiment: ELISA on secreted mutant I domain
T5 construct: domain: I domain; not shown: myc and His tags

[8] = molecular target: T6, human CD49a I domain S162H (human, UniProt P56199 151-364, S162H); experiment: ELISA on secreted mutant I domain
T6 construct: domain: I domain; not shown: myc and His tags

[9] = molecular target: T7, human CD49a I domain I11F (human, UniProt P56199 151-364, I11F); experiment: ELISA on secreted mutant I domain
T7 construct: domain: I domain; not shown: myc and His tags

[10] = molecular target: T8, human CD49a I domain with residues 91-96 VQRGGR replaced by mouse GRRGGL (human, UniProt P56199 151-364, V91G; Q92R; R96L); experiment: ELISA on secreted mutant I domain
T8 construct: domain: I domain; also called V91G, Q92R, R96L; not shown: myc and His tags

[11] = molecular target: T9, human CD49a I domain T204A (human, UniProt P56199 151-364, T204A); experiment: ELISA on secreted mutant I domain
T9 construct: domain: I domain; not shown: myc and His tags

[12] = molecular target: T10, human CD49a I domain E66A (human, UniProt P56199 151-364, E66A); experiment: ELISA on secreted mutant I domain
T10 construct: domain: I domain; not shown: myc and His tags

[13] = molecular target: T1, human VLA-1 (alpha 1/beta 1, …); experiment: cell-based or functional assay; remark: listed apart in the source
[14] = molecular target: T11, human VLA-1 α1 subunit (CD49a), full-length, on transfected CHO cells (human, UniProt P56199 29-1179); experiment: cell-based or functional assay
[15] = molecular target: T11, human VLA-1 α1 subunit (CD49a), …; experiment: cell-based or functional assay; remark: listed apart in the source
[16] = molecular target: T11, human VLA-1 α1 subunit (CD49a), …; experiment: FACS on CHO-α1 cells
[17] = molecular target: T1, human VLA-1 (alpha 1/beta 1, …); experiment: FACS on IL-2 stimulated human PBMC

B1: 1.7 (antibody, V domains shown)
VH: QVQLQESGPGLVKPSQTLSLTCTVSGGSISRGNYYWSWIRQHPGKGLEWIGYIFYSGSTYYNPSLKSRVTISVDTSKNQFSLKLSSVTAADTAVYYCARDGYGMDVWGQGTTVTVSS
VL: EIVLTQSPGTLSLSPGERATLSCRASQSVSSSYLVWYQQKPGQAPRLLLYDASSRATGIPDRFSGSGSGTDFTLTISRLEPEDFAVYYCQQYGNSPLTFGGGTKVEIK
notes: human IgG2 or IgG4; also called antibody 1.7
[1]
  % adhesion of T cells to collagen IV vs no antibody, 0.5 nM mAb, no PMA: 36.9%
[2]
  % adhesion of IL-2 activated T cells to collagen IV vs no antibody, 10 µg/ml, +PMA: 33.8%
  % adhesion of IL-2 activated T cells to collagen IV vs no antibody, 10 µg/ml, -PMA: 57%
[3]
  binding result: binds
[4]
  % adhesion of T cells to collagen IV vs no antibody, 0.5 nM mAb, 10 ng/ml PMA: 74.5%
  % adhesion of T cells to collagen IV vs no antibody, 5 nM mAb, 10 ng/ml PMA: 44.1%

B2: 3.9 (antibody, V domains shown)
VH: QVQLVESGGGVVQPGRSLRLSCAASGFTFSSYGMHWVRQAPGKGLEWVAVIWYDGSNKYYADSVKGRFTISRDNSKNTLYLQMNSLRAEDTAVYYCARDNGAMVRGVIISYYYGMDVWGQGTTVTVSS
VL: SYDLTQPSSVSVSPGQTASIACSGDRLGNKYACWYQQKPGQSPVLVIYKDSKRPSGIPERFSGSNSGNTATLTISGTQAMDEADYYCQAWDSSTVVFGGGTKLTVL
notes: human IgG2 or IgG4
[5]
  binding result: binds
[6]
  binding result: binds
[7]
  binding result: no binding
[8]
  binding result: binds
[9]
  binding result: binds
[10]
  binding result: binds
[11]
  binding result: binds
[12]
  binding result: binds
[1]
  % adhesion of T cells to collagen IV vs no antibody, 0.5 nM mAb, no PMA: 91.5%
  % adhesion of T cells to collagen IV vs no antibody, 5 nM mAb, no PMA: 68%
[2]
  % adhesion of IL-2 activated T cells to collagen IV vs no antibody, 10 µg/ml, +PMA: 24.6%
  % adhesion of IL-2 activated T cells to collagen IV vs no antibody, 10 µg/ml, -PMA: 45.8%
[13]
  T cell adhesion to immobilized collagen IV, relative estimated IC50: > 5 nM
[14]
  relative inhibition at an optimal concentration, CHO-VLA-1 adhesion to collagen IV: > 80%
[15]
  IC50, adhesion of CHO-VLA-1 cells to collagen IV: 0.38 nM
[4]
  % adhesion of T cells to collagen IV vs no antibody, 0.5 nM mAb, 10 ng/ml PMA: 91.9%
  % adhesion of T cells to collagen IV vs no antibody, 5 nM mAb, 10 ng/ml PMA: 99.6%

B3: 7.38 (antibody, V domains shown)
VH: QVQLQESGPGLVKPSETLSLTCTVSGGSFSSYYWSWIRQPAGKGLEWIGRIYTSGSTYYNPSLKSRVTMSVDTSKNQFSLKLNSVTAADTAVYYCAREGYDFWNDYYNYYYGMDVWGQGTTVTVS
VL: EIVLTQSPGTLSLSPGERATLSCRASQSVSSRYLAWYQQKPGQAPRLLIYGASSRATGIPDRFSGSGSGTDFTLTISRLEPEDFAVYYCQQYGSAFTFGGGTKVEIK
notes: human IgG2 or IgG4
[16]
  binding result: binds

B4: 3.2 (antibody, V domains shown)
VH: QVQLVESGGGVVQPGRSLRLSCAASGFTFSSYGIHWVRQAPGKGLEWVAVIWYDGSDIYYADSVKGRFTISRDNSKNTLYLQMNSLRAEDTALYYCARESSGWTFDYWGQGTLVTVSS
VL: QSALTQPASVSGSPGQSITISCTGTSSDVGGYNYVSWYQQHPGKAPKLMIYEVSNRPSGISNRFSGSKSGNTASLTISGLQAEDEADYYCSSYTSSSTIIFGGGTKLTVL
notes: human IgG2 or IgG4
[17]
  binding result: binds
